Source: article doi:10.1101/2020.12.04.412312

Target: Leptospira interrogans triosephosphate isomerase (Leptospira interrogans)
Test: SEC

stoichiometry N: 2
Substance: Leptospira interrogans triosephosphate isomerase (enzyme)
